Reference: patent publication US20200407442A1 (WUXI BIOLOGICS IRELAND, published 2020)
Positions count from the first letter of the chain named. Blank lines part the entries; values can stand above or below the binder they belong to.

Tests used:
[1] = molecular target: T1, full-length human LAG-3 on cells (human, UniProt P18627 23-525); assay: FACS on human LAG-3 transfectant cells
T1 construct: Expressed on Flp-In-293, CHO or 293F transfectants; also called hPro1.FL; cell surface human LAG-3
T1 sequence: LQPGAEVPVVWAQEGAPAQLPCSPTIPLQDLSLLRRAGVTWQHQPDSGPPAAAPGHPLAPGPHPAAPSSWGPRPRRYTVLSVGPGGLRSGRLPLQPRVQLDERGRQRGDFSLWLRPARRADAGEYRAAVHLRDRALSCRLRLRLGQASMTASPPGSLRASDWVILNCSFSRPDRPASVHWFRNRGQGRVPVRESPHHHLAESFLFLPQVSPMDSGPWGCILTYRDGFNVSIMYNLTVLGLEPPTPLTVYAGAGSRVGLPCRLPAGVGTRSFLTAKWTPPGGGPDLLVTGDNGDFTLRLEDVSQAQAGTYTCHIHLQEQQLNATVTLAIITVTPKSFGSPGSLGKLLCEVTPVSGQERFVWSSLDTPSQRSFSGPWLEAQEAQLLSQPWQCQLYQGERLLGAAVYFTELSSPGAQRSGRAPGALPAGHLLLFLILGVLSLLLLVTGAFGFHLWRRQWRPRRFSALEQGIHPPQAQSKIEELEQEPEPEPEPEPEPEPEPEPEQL
Description: Various concentrations of testing antibodies, positive and negative controls were added to human LAG-3 transfectant cells, and then the binding of antibodies onto the surface of the cells was detected by corresponding PE-labeled secondary antibodies.

[2] = molecular target: T2, human LAG-3 protein (SPR analyte) (human, UniProt P18627 30-450); assay: SPR Biacore 8K, antibody captured by anti-human Fc, LAG-3 as analyte
T2 sequence: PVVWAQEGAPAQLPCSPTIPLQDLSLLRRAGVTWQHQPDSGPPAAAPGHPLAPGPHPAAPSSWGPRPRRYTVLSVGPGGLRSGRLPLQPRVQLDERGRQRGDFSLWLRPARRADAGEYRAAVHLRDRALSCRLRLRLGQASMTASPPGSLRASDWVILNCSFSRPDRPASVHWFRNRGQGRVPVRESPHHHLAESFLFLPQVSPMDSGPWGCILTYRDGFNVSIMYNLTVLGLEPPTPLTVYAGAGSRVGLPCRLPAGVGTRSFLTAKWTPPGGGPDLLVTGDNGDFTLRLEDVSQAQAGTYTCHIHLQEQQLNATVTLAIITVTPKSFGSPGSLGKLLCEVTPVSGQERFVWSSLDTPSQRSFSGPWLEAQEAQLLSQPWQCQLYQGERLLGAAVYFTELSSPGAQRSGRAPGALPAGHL
Description: Antibodies were characterized for affinity and binding kinetics to human LAG-3 by SPR assay using Biacore 8K. Goat anti-human Fc was pre-immobilized to a sensor chip (CMS), and anti-LAG-3 antibodies were captured when injected to the chip. Various concentrations of human LAG-3 protein and running buffer were flowed through the sensor chip at a flow rate of 30 μL/min for an association phase of 300 s, followed by 3600 s dissociation. The association and dissociation curve was fit by 1:1 Langmuir binding model using Biacore 8K Evaluation Software.

[3] = molecular target: T3, human LAG-3-ECD.D12.mFc mutant A59G (human, UniProt P18627 37-252); assay: ELISA, antibody coated, LAG-3 D12.mFc mutant in supernatant, normalised to control mutants
T3 construct: construct limits as for m26
T3 chain: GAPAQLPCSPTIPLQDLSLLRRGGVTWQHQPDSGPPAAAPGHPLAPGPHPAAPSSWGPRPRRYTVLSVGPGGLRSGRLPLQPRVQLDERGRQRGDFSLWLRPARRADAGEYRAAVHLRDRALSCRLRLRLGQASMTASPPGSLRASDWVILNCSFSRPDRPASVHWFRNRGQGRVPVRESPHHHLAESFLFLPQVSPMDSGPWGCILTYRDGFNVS
Description: (§1) For ELISA binding assay, the antibody 1.53.3-uAb-IgG4k or 3.40.19-uAb-hIgG4L (2 μg/mL) was coated in plates. After interacting with the supernatant that contains quantified LAG-3 mutants or human LAG-3-ECD.D12.mFc protein, HRP conjugated anti-mFc antibody (1:5000; Bethyl, USA) was added as a detection antibody. Absorbance was normalized according to the average absorbance of control mutants. After setting an additional cutoff to the binding fold change (<0.75), the final determined epitope residues were identified.

[4] = molecular target: T4, human LAG-3-ECD.D12.mFc mutant E146A (human, UniProt P18627 37-252); assay: as above
T4 construct: Alanine scanning mutant; construct limits as for m26
T4 chain: T3 chain with G23A, E110A
Description: as §1

human CD4 = molecular target: T5, human CD4 (human, UniProt P01730 26-390, limits assumed); assay: ELISA on plate-coated human CD4, OD450
T5 construct: also called human CD4 protein
Description: Cross-reactivity to human CD4 was measured by ELISA. Plates were coated with human CD4 at 1μg/mL overnight at 4° C. After blocking and washing, 1 μg/mL of LAG-3 antibodies were added to the plates and incubated at room temperature for 1 h. The plates were then washed and subsequently incubated with corresponding secondary antibody for 45 min. After washing, TMB substrate was added and the color reaction was stopped by 2 M HCl. The absorbance at 450 nm was read using a microplate reader.

mFc-tagged LAG-3 protein = molecular target: T6, mFc-tagged LAG-3 protein (human, UniProt P18627 30-450); assay: ELISA competition: blocks mFc-tagged LAG-3 binding to coated LSECtin
T6 construct: also called human LAG-3 ECD with mouse Fc tag
T6 sequence: T2 sequence
Description: 96-well plates were coated with human LSECtin or Galectin-3 at 0.5 μg/mL overnight at 4° C., respectively. Antibodies were serially diluted in 1% BSA-PBS and mixed with mFc-tagged LAG-3 protein. After blocking and washing, the mixture was transferred to the plates and incubated at room temperature for 1 h. The plates were then washed and subsequently incubated with corresponding secondary antibody for 60 min. After washing, TMB substrate was added and the color reaction was stopped by 2M HCl. The absorbance at 450 nm was read using a microplate reader.

EC50 [1]: 0.13 nM | Kd [2]: 0.0106 nM | koff [2]: 1.11e-05 s⁻¹ | kon [2]: 1.05e+06 M⁻¹ s⁻¹ | Fold Change [3]: 0.542 | Fold Change [4]: 0.582 | binding result (human CD4): no binding (tested: 66.7 nM) | EC50 (mFc-tagged LAG-3 protein): 0.51 nM
B1: 3.40.19-uAb-IgG4L (antibody, V domains shown)
VH: QLQLQESGPGLVKPSETLSLTCTVSGDSISSTSYYWGWIRQPPGKGLEWIGSFYYSGSTYYNPSLKSRVTISVDTSKNQFSLKLNSVTAADTAVYYCARMQLWSYDVDVWGQGTTVTVSS
VL: QSALTQPASVSGSPGQSITISCTGTSSDVGGYDYVAWYQQHPGKVPKLMIYDVSERPSGVSNRFSGSKSGNTASLTISGLQAEDEADYYCSSYTSTTTLVVFGGGTKLSVL
notes: Fully human antibody from OMT rats; IgG4 lambda by its name; also called 3.40.19-uAb-hIgG4L

EC50 [1]: 0.43 nM | Kd [2]: 0.0505 nM | koff [2]: 3.33e-05 s⁻¹ | kon [2]: 660000 M⁻¹ s⁻¹ | Fold Change [3]: 0.718 | Fold Change [4]: 0.701 | binding result (human CD4): no binding (tested: 66.7 nM) | EC50 (mFc-tagged LAG-3 protein): 0.71 nM
B2: 1.53.3-uAb-IgG4k (antibody, V domains shown)
VH: QVQLQQWGAGLLKPSETLSLTCGVYGGSFSGYYWSWIRQPPGMGLEWIGEINHRGNTNYNPSLKSRVTISEDTSKNQFSLRLSSVTAADTAVYFCTRGEDYSDYDYYGDFWGQGTLVTVSS
VL: EIVLTQSPATLSLSQGERATLSCRASQSISSYLAWYQQKPGQAPRLLIYAASNRATGIPARFSGSGSGTDFTLTISSLEPEDFAIYYCQQRSNWPLTFGGGTKVEIK
notes: Fully human antibody from OMT rats; IgG4 kappa by its name
